The values below come from patent US20230382979A1 (ADAPTIVE BIOTECHNOLOGIES, published 2023).

The target in experiment [1] is SARS-CoV-2 spike protein, B1.1.7 (alpha variant), borne on lentiviral pseudovirus (SARS-CoV-2, B1.1.7). As to the kind of experiment: cell-based or functional assay.
For experiment [2], the target named is T1, Receptor-binding domain (RBD) of the SARS-CoV-2 spike protein, WA01/2020 strain (SARS-CoV-2, WA01/2020 strain, UniProt P0DTC2 319-541). The experiment can be described thus: SPR (Biacore 8K), antigen immobilized, antibody injected.
For experiment [3], the target named is SARS-CoV-2 spike protein on live virus, strain USA-WA1/2020 (SARS-CoV-2, WA01/2020 strain, UniProt P0DTC2 14-1273). The experiment can be described thus: cell-based or functional assay.
The target in experiment [4] is T1, Receptor-binding domain (RBD) of the …. The experiment can be described thus: ELISA, antibody blocks RBD binding to human ACE2.
For experiment [5] the target is unchanged. As to the kind of experiment: dose-response ELISA on coated antigen.
The target is the same in experiment [6]. The experiment can be described thus: ELISA screening, antibody concentration not given.
Experiment [7] has as its target SARS-CoV-2 spike protein, B1.351 (beta variant), borne on lentiviral pseudovirus (SARS-CoV-2, B1.351). As to the kind of experiment: cell-based or functional assay.

B1: antibody 2050 (antibody, V domains shown)
VH: QVQLVQSGAEVKKPGASVKVPCKVSGYTFTDHFIHWVRQAPGQGLEWMGWISPNSGGRNYTQKFQGRVTLTRDTAITTVHMDLSSLTPDDTAVYYCARDVRWAQLQGGFDLWGQGTMVTVSS
VL: QSALTQPASVSGSPGQSITISCTGTSSDVGSYNLVSWYQQHPGKAPKLMIYEVSKRPSGVSNRFSGSKSGNTASLTISGLQADDEADYYCCSYAGDNNFLFGGGTSLTVL
Turning to B1, in experiment [1], the “Pseudo Neut, B1.1.7 IC50 (pM)” value is 200 pM. In experiment [2], this molecule registered a Kd of 0.115 nM. In addition, in experiment [3], the “Live Neut, WA1/2020 IC50 (pM)” value came out at 36 pM. Moreover, the IC50 in experiment [4] is 0.727 nM. This molecule registered an EC50 in experiment [5] of 0.025 nM.

B2: antibody 1826 (antibody, V domains shown)
VH: QVQLQESGPGLVKPSETLSLTCSVTGGSTNYYYWSWIRQPPGKGLEWIGYIYYSGTTNYNPSLKDRVTMSVDKSKTQLSLKLNSVTAADTAVYYCARHARHCTNGVCQTYYYYGLDVWGLGTTVAVSA
VL: QSVLTQPPSVSAAPGQRVTISCSGSSSNIGAGYDVHWYQHLPGTAPKLLIYNNNNRPSGVPDRFSASRSGTSASLAITGVQTEDEADYYCQSFDGRLSESGVFGGGTKLTVL
As for B2, the binding result in experiment [6] is recorded as “no binding (tested: not printed)”.

B3: antibody 2020 (antibody, V domains shown)
VH: QVQLVQSGAEVKKPGASVKVSCKASGYTFTDYFMHWVRQAPGQGLEWMGWVNPLSGGTNFAQKFQGRVTMTSDTSITTVYMELSRLRSDDTAVYYCARDPPLYSSTYGMDVWGQGTTVTVSS
VL: QSALTQPASVSGSPGQSITISCTGTSSDVGAYNYVSWYQQHPGKAPKLMIYDVSDRPSGVSNRFSGSKSGNTASLTISGLQAEDEADYYCSSYTISSSVVFGGGTKLTVL
On to B3, for which the “Pseudo Neut, B1.1.7 IC50 (pM)” value in experiment [1] was 13 pM. In addition, the dissociation constant Kd in experiment [2] came out at 0.0011 nM. Besides, in experiment [3], the “Live Neut, WA1/2020 IC50 (pM)” value amounted to 14 pM. In experiment [4], this molecule returned an IC50 of 1.41 nM. The molecule also had an EC50 in experiment [5] of 0.088 nM.

B4: antibody 1915 (antibody, V domains shown)
VH: QVQLVESGGGVVQPGRSLRLSCAASGFTFSSYAMHWVRQAPGKGLEWVAVISYDGSNKYYADSVKGRFTISRDNSKNTLYLQMDSLRAQDTAVYYCATPRDMFSSGWSSPFDYWGQGTLVTVSS
VL: DIQMTQSPSSLSASVGDRVTITCQASQDISIYLTWYQQKPGKAPKLLIYGASNLEVEVPSRFSGSGSGTEFTLTISSLQPEDFATYFCQHSDDLPVTFGGGTKVEVK
On to B4, for which the binding result in experiment [6] was “no binding (tested: not printed)”.

B5: antibody 1969 (antibody, V domains shown)
VH: QVQLVQSGAEVKKPGASVKVSCKASGYSFTDYYIHWVRQAPGQGLEWMGIIKPSAGATVYAQKFRGRVSMTSDTSTGTVYMELSGLKSEDTAVYYCARDYNRSFDFWGQGTLVTVSS
VL: QSVLTQPPSVSAAPGQTVTISCAGSTSNIGKNYVSWYQHLPGTAPKLLIYDNIKRPSGIPDRFSGSTSGTSATLGITELQTGDEADYYCGTWDSSLSAYVFGTGTKVTVL
On to B5, for which, in experiment [6], the binding result was “no binding (tested: not printed)”.

B6: antibody 1963 (antibody, V domains shown)
VH: QVQLVQSGAEVKKPGASVKVSCKASGYTFTSNYIHWLRQAPGQGLEWMGIIKPSGTSTISAQKFRGRVAMTRDTSTSTVYMELSSLRFEDTAIYYCARDAKRALETWGQGTMVTVSS
VL: QSVLTQPPSVSAAPGQKVTISCSGSSSNIGNNYVSWYQQLPGTAPKLLIYDNNKRPSGIPDRFSGSRSGTSATLGITGLQTGDEADYYCGTWDSSLSAWVFGGGTKLTVL
On to B6, for which the binding result in experiment [6] is recorded as “no binding (tested: not printed)”.

B7: antibody 941 (antibody, V domains shown)
VH: QVQLVQSGAEVKKPGSSVKVSCKASGGTFSNSAINWVRQAPGQGLEWMGGIIPLFGAADYAQKFQARVTITADKSTTTSYMELSSLRSEDTAVYYCARDTLEHDDVWGNFRLSLPLSFWGQGTLVTVSS
VL: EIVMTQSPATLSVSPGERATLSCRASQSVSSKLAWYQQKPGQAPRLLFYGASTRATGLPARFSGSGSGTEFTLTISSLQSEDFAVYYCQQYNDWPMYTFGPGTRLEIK
As to B7, the “Pseudo Neut, B1.1.7 IC50 (pM)” value in experiment [1] is 533 pM. Besides, in experiment [2], the dissociation constant Kd was 0.062 nM. The “Live Neut, WA1/2020 IC50 (pM)” value in experiment [3] was found to be 24 pM. Also, the IC50 in experiment [4] amounted to 0.96 nM. Besides, the 50% effective concentration (EC50) in experiment [5] worked out at 0.024 nM.

B8: antibody 1959 (antibody, V domains shown)
VH: QVQLVQSGTEVKKPGSSVRVSCQASGDTFTSHAIIWIRQAPGQGLEYLGRIIPVLDITNAAQRFLGRLTLTADKSTTTAYMELSSLRSEDTAVYYCARAPFGLIVMYDHWGQGTLVTVTA
VL: EIVLTQSPGTLSLSPGERATLSCRASQSVSGNFLAWYQQKPGQAPRLLIHETSKRATGIPDRVSGGGSGTDFTLTISRLEPEDFAVYHCQQYGTTAVTFGQGTRLDMK
As for B8, in experiment [6], the binding result is “no binding (tested: not printed)”.

B9: antibody 1856 (antibody, V domains shown)
VH: EVRLVESGGGLVKPGGSLRLSCAASGFSFSLYTMNWVRQAPGKGLEWVSYISSSSSYRYYADSVKGRFSVSRDNAKNTLYLEMNGLRAEDTAVYYCARDGYCPRGVCTYYGMDVWGQGTTVTVSA
VL: EIVMTQSPATLSVSPGERATLSCRASQTIGIRLAWYQQKPGQAPRLLIYDATIRATGIPARFSGSGSGTDFTLTISGLQSEDFAVYYCQRYNNWPPVYTFGQGTKLEMK
As for B9, in experiment [6], the binding result is “no binding (tested: not printed)”.

B10: antibody 2075 (antibody, V domains shown)
VH: QVQLVQSGAEVKKPGSSVKVSCTASGGTFSIYAFSWVRQAPGQGLEWMGGIIPISGTAGYAQKFQGRVTITADESTSTAYMELSSLRSEDTAIYYCARKYRYCSGSRCYTYFDYWGQGTLVTVSS
VL: DIQMTQSPSSLSASVGDRVTITCRASQSISSFLNWYQQKPGKAPKLLIYAASSLQSGVPSRFSGSGSGTDFTLTISSLQPEDSATYYCQQSYSTITFGQGTRLEIK
Regarding B10, the “Pseudo Neut, B1.1.7 IC50 (pM)” value in experiment [1] is around 7 pM. The molecule also returned a Kd in experiment [2] below 0.0007 nM. For the same molecule, the “Live Neut, WA1/2020 IC50 (pM)” value in experiment [3] came to 12 pM. The molecule further came in with an IC50 in experiment [4] of 0.93 nM. The 50% effective concentration (EC50) in experiment [5] turned out to be 0.073 nM.

B11: antibody 1823 (antibody, V domains shown)
VH: EVQLVESGGGLVKPGGSLRLSCVASGFSFGLYTMNWVRQAPGKGLEWVSYISSSTSYKYYADSVKGRVSVSRDNAKNSLYLQLNGLRVEDTAVYYCARDGYCPNGICTYYGMDVWGQGTTVTVSA
VL: EIVMTQSPATLSVSPGERATLSCRASQSVSSNLAWYQQKPGQAPRLLIYGASTRATGIPARFSGSGSGTEFTLTITGLQSEDFAVYYCQQYDKWPPAYSFGQGTKVEIK
Consider B11, for which the “Pseudo Neut, B1.351 IC50 (pM)” value in experiment [7] was found to be 133 pM. In addition, the “Pseudo Neut, B1.1.7 IC50 (pM)” value in experiment [1] was 850 pM.

B12: antibody 1867 (antibody, V domains shown)
VH: EVQLVESGGGLVKPGGSLRLSCAASGFSFSTYTMNWVRQAPGKGLEWVSYISSSSSYRYYADSVRGRFSVSRDNAKNSLYLQMNGLRVEDTAVYYCARDGYCPNGVCTYYGMDVWGQGTTVTVSS
VL: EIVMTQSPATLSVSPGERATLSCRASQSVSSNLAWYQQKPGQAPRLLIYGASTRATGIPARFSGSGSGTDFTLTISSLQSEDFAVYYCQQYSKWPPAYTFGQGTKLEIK
For B12, the binding result in experiment [6] was “no binding (tested: not printed)”.

B13: antibody 1888 (antibody, V domains shown)
VH: EVQLVESGGGLVKPGGSLRLSCAASGFTFSSYSMNWVRQAPGKGLEWVSYISSSSSYKYYADSVKGRFSVSRDNAKNSLYLQLNGLRVEDTAVYYCARDGYCPKGVCTYYGMDVWGQGTTVTVSA
VL: EIVMTQSPATLSVSPGERATLSCRASQSVRSRLAWFQQKPGQPPRLLIYDASIRATGIPDRFSGSGSGTEFTLIISGLQSEDFAVYYCQQYDNWPPAYTFGQGTKLEIK
As to B13, in experiment [6], the binding result was “no binding (tested: not printed)”.

B14: antibody 2706 (antibody, V domains shown)
VH: QVQLVQSGAEVKKPGSSVKVSCKASGGTFSTYAISWVRQAPGQGLEWMGGIIPLFATANYAQNFQGRVTITADKSTSTAYMELSSLRSEDTAVYYCASVRLHLEELSLSHQGDYYYGLDVWGQGTTVTVSS
VL: DIQMTQSPSSLSASVADRVTITCQASQDISHYLNWYQQKPGKAPQLLIYDASKLETGAPSRFSGSGSGTDFTFTISSLQPEDIATYYCQQYDHLPLTFGGGSKVEIK
Take B14: the “Pseudo Neut, B1.351 IC50 (pM)” value in experiment [7] is above 18000 pM. Further, the “Pseudo Neut, B1.1.7 IC50 (pM)” value in experiment [1] is 13 pM. The molecule further gave a dissociation constant Kd in experiment [2] of 0.029 nM. In experiment [3], the “Live Neut, WA1/2020 IC50 (pM)” value turned out to be 171 pM. In experiment [4], this molecule displayed an IC50 of 0.51 nM. This molecule registered a 50% effective concentration (EC50) in experiment [5] of 0.017 nM.

B15: antibody 1864 (antibody, V domains shown)
VH: QVQLQESGPGLVKPSETLSLTCTVSGGSINYYYWSWIRQPPGKGLEWIGFIYSSGTTNYNPSLKSRVTMSVDSSKSQFSLKLSSVTAADSAVYYCARHSRSCTNGVCQTYYYYALDVWGHGTTVTVSS
VL: QSVLTQPPSVSGAPGQRVTISCTGSSSNIGAGYDVHWYQQLPGTAPKLLIYGNSNRPSGVPDRFSASKSGTSASLAIAGLQPEDEGDYYCQSYDGSLSESGVFGGGTRLTVL
For the molecule B15, the binding result in experiment [6] is “no binding (tested: not printed)”.

B16: antibody 1870 (antibody, V domains shown)
VH: QVQLQESGPGLVKPSETLSLTCSVSGGSINYYYWSWIRQPPGKGLEWIGFIYSSGTTNYNPSLKSRVTMSVDTSKNQFSLKLSSVTAADSAVYYCARHSRSCTNGVCQTYYYYALDVWGHGTTVTVSS
VL: QSVLTQPPSVSGAPGQRVTISCTGSSSNIGAGYDVHWYQQLPGTAPKLLIYGNSNRPSGVPDRFSASKSGTSASLAIAGLQAEDEGDYYCQSYDGSLSESGVFGGGTRLTVL
Regarding B16, in experiment [6], the binding result is “no binding (tested: not printed)”.

B17: antibody 1851 (antibody, V domains shown)
VH: QVQLQESGPGLVKPSETLSLTCTVSGGSINYYYWSWIRQSPGKGLEWIGFIYSSGTTNYNPSLKSRVTMSVDSSKSQFSLKLSSVTAADSAVYYCARHSRSCTNGVCQTYYYYALDVWGHGTTVTVSS
VL: QSVLTQPPSVSGAPGQRVTISCTGSSSNIGAGYDVHWYQQLPGTAPKLLIYGNSNRPSGVPDRFSASKSGTSASLAIAGLQPEDEGDYYCQSYDGSLSESGVFGGGTRLTVL
As for B17, in experiment [6], the binding result was “no binding (tested: not printed)”.
